The record followed here is patent US20220267443A1 (AGENUS, published 2022).

Positions count from the first letter of the chain named.

The labels stand for the following.
T1: rhBTLA-Fc (Sino Biological, #11896-H02H) (human, UniProt Q7Z6A9 31-157)
T1 construct: Bought protein; also called recombinant human BTLA; not shown: Fc part of the bought fusion protein
T1 sequence: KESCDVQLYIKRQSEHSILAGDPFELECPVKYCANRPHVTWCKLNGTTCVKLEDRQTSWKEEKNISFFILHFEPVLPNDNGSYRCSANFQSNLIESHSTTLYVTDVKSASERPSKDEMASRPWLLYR

T2: rhICOS-Fc (R&D, #169-CS-050) (human, UniProt Q9Y6W8 21-141)
T2 construct: Bought protein; also called recombinant human ICOS; not shown: Fc part of the bought fusion protein
T2 sequence: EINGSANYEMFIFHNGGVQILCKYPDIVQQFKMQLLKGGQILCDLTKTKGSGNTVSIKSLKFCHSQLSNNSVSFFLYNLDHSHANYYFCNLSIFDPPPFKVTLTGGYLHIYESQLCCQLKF

T3: human FcγRIIB expressed on CHO cells (human, UniProt P31994 43-310)
T3 construct: whole, on cells; also called rCHO-huFcγRIIB+
T3 sequence (looked up): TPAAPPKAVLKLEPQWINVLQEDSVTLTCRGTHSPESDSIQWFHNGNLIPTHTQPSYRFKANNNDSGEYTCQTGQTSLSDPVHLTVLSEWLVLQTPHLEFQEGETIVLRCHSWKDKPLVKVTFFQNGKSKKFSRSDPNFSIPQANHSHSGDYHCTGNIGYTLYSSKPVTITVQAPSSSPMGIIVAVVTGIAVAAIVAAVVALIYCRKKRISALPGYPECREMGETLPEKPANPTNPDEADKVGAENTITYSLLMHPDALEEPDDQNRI

T4: recombinant human CTLA-4-Fc (R&D Systems, #7268-CT) (human, UniProt P16410 36-161)
T4 construct: Bought protein; also called rhCTLA-4-Fc; CTLA-4 antigen; not shown: Fc part of the bought fusion protein
T4 sequence: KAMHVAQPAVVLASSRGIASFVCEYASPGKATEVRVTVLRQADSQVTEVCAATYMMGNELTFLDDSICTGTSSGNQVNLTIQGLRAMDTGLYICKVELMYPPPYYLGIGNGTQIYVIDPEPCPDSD

B1: AGEN2041w (antibody, human IgG2, kappa)
heavy: EVQLVESGGGLVKPGGSLRLSCAASGFTFSSYSMNWVRQAPGKGLEWVSSISSSSSYIYYADSVKGRFTISRDNAKNSLYLQMNSLRAEDTAVYYCARVGLMGPFDIWGQGTMVTVSSASTKGPSVFPLAPCSRSTSESTAALGCLVKDYFPEPVTVSWNSGALTSGVHTFPAVLQSSGLYSLSSVVTVPSSNFGTQTYTCNVDHKPSNTKVDKTVERKCCVECPPCPAPPVAGPSVFLFPPKPKDTLMISRTPEVTCVVVDVSHEDPEVQFNWYVDGVEVHNAKTKPREEQFNSTFRVVSVLTVVHQDWLNGKEYKCKVSNKGLPAPIEKTISKTKGQPREPQVYTLPPSREEMTKNQVSLTCLVKGFYPSDIAVEWESNGQPENNYKTTPPMLDSDGSFFLYSKLTVDKSRWQQGNVFSCSVMHEALHNHYTQKSLSLSPG
light: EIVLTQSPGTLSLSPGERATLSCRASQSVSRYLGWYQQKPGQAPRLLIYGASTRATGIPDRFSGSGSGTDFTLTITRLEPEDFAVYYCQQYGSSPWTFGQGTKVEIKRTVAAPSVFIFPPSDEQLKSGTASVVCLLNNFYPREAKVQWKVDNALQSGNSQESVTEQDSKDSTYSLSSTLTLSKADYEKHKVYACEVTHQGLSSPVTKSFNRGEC
notes: Human IgG2 version of AGEN1884w
B2: AGEN1896 (antibody, V domains shown)
VH: EVQLLESGGGLVKPGGSLRLSCAASGFTFSSYSMNWVRQAPGKGLEWVSSISSSSSYIYYADSVKGRFTISRDNAKNSLYLQMNSLRAEDTAVYYCARVGLMGPFDIWGQGTMVTVSS
VL: EIVLTQSPATLSFSPGERATLSCRASQSVSSYLAWYQQKPGQAPRLLIYGASSRATGIPDRFSGSGSGTDFTFTISRLEPEDFAVYYCQQYGSSPFTFGPGTKVDIK
B3: AGEN1887 (antibody, V domains shown)
VH: B2 VH with K13Q, S33A, N35S, E46V
VL: B2 VL with A9G, F13L, S31R, A34G, S53T, F73L, S76T, F96W, P100Q, D105E
B4: AGEN1901 (antibody, V domains shown)
VH: B2 VH with L5V, K13Q, R19T
VL: B2 VL with F13L, S30G, S31T, Q38H, P40V, S53R, F73L, F96W, P100Q, D105E
B5: AGEN1898 (antibody, V domains shown)
VH: B2 VH with K13Q, S33A, N35S, E46V, D106N
VL: B2 VL with F13L, R45S, G50A, A51T, G66V, F73L, S93T, F96W, P100Q, D105E
B6: AGEN1897 (antibody, V domains shown)
VH: B2 VH with K13Q, S33A, N35S, E46V, D106N
VL: B2 VL with A9G, F13L, S31R, A34G, S53T, F73L, S76T, F96W, P100Q, D105E
B7: AGEN1895 (antibody, V domains shown)
VH: B2 VH
VL: B2 VL with F13L, R45S, G50A, A51T, G66V, F73L, S93T, F96W, P100Q, D105E
B8: AGEN1899 (antibody, V domains shown)
VH: B2 VH with K13Q, S33A, N35S, E46V, D106N
VL: B2 VL
B9: AGEN1902 (antibody, V domains shown)
VH: B2 VH with L5V, K13Q, R19T
VL: B2 VL
B10: AGEN1888 (antibody, V domains shown)
VH: B2 VH with K13Q, S33A, N35S, E46V
VL: B2 VL
B11: AGEN1900 (antibody, V domains shown)
VH: B2 VH with K13Q, S33A, N35S, E46V, D106N
VL: B2 VL with F13L, S53N, D60A, F73L, R77S
B12: AGEN1885 (antibody, V domains shown)
VH: B2 VH with L5V
VL: B2 VL with F13L, R45S, G50A, A51T, G66V, F73L, S93T, F96W, P100Q, D105E
B13: AGEN1892 (antibody, V domains shown)
VH: B2 VH with L5V, S78T
VL: B2 VL with F13L, S53N, D60A, F73L, R77S
B14: AGEN1886 (antibody, V domains shown)
VH: B2 VH with L5V
VL: B2 VL
B15: AGEN1890 (antibody, V domains shown)
VH: B2 VH with L5V, S78T
VL: B2 VL
B16: AGEN1893 (antibody, V domains shown)
VH: B2 VH
VL: B2 VL with F13L, S30G, S31T, Q38H, P40V, S53R, F73L, F96W, P100Q, D105E
B17: AGEN1891 (antibody, V domains shown)
VH: B2 VH with L5V, S78T
VL: B2 VL with F13V, G50A, S53T, G66A, F73L, F96W, P100Q, D105E
B18: AGEN1889 (antibody, V domains shown)
VH: B2 VH with L5V, S78T
VL: B2 VL with F13L, S30G, S31T, Q38H, P40V, S53R, F73L, F96W, P100Q, D105E

T8 sequence (P08637 17-254 F176V limits assumed): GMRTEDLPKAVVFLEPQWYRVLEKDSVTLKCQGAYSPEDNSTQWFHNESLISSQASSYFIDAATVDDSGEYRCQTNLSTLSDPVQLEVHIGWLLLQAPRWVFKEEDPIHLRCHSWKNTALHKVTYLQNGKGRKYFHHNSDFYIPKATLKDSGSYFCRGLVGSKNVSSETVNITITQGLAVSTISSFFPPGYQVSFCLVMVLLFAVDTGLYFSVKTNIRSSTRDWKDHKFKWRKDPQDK
T6 sequence (Q15116 25-167 limits assumed): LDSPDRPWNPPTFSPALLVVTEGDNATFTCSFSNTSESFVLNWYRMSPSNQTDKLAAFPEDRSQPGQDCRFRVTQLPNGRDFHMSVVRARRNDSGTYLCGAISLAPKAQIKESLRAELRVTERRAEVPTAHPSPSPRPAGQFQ

One assay deals with T5, recombinant cynomolgus CTLA-4-Fc (Sino Biological, #90213-C02H) (cynomolgus, UniProt P16410 36-161 (human entry)).
T5 construct: Bought protein; also called recombinant cynomolgus (rc) CTLA-4; not shown: Fc part of the bought fusion protein
T5 sequence (P16410 other isoform, or with tags, fused parts or gaps C02H C02H limits assumed): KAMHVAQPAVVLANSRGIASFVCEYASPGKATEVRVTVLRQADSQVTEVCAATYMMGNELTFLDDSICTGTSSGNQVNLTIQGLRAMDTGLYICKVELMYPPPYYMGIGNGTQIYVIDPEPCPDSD
Description: suspension array (Luminex) selectivity assay as in Section 6.1.3.
B1: the binding result is reported as “binds”.

Another assay concerns the target T6, rhPD-1-Fc (R&D Systems, #1086-PD) (human, UniProt Q15116 25-167).
T6 construct: Bought protein; also called recombinant human PD-1; not shown: Fc part of the bought fusion protein
The description is as above.
Consider B1, for which the binding result is listed as “no binding”.

For another assay, the target named is T7, rhCD28-Fc (R&D, #342-CD-200) (human, UniProt P10747 19-152).
T7 construct: Bought protein; also called recombinant human CD28; not shown: Fc part of the bought fusion protein
T7 sequence (P10747 19-152 limits assumed): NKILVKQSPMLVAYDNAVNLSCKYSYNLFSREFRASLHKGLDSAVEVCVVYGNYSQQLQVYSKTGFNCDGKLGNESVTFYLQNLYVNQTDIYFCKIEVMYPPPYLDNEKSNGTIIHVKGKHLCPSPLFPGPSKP
Described as above.
For the molecule B1, the binding result is “no binding”.

The next assay deals with T1, rhBTLA-Fc (Sino Biological, #11896-H02H). The description is as above.
Regarding B1, the binding result is listed as “no binding”.

For the next assay, the target named is T2, rhICOS-Fc (R&D, #169-CS-050). Described as above.
In the case of B1, the binding result was “no binding”.

A further assay concerns the target T8, human FcγRIIIA^V158 expressed on cells (human, UniProt P08637 17-254).
T8 construct: whole, on cells; also called rCHO-huFcγRIIIA+
Description: flow cytometry on CHO cells expressing human FcγRIIIA^V158. The method, then: (§1) The binding of anti-CTLA-4 antibodies to human FcγRIIA, FcγRIIB, and FcγRIIIA expressed on the surface of CHO cells was measured by flow cytometry. Briefly, CHO cells were transfected with cDNA encoding for human FcγRIIA^H131, FcγRIIB, or FcγRIIIA^V158, generating the following CHO cell lines: rCHO-huFcγRIIA⁺, rCHO-huFcγRIIB⁺, and rCHO-huFcγRIIIA⁺. Binding of a dose titration of antibodies ranging from 0.0056-1000 μg/ml was performed and the primary antibodies were detected with an anti-human F(ab′) secondary antibody conjugated with Phycoerythrin (PE) (Jackson Immune Research). The samples were tested by flow cytometry and the PE mean fluorescence intensity (MFI) values were analyzed and used to generate binding curves. The antibodies tested were AGEN1884w, AGEN2041w, a reference anti-CTLA-4 IgG₁ antibody, and an IgG₁ isotype control antibody. AGEN1884w produced in two different growth media was used in this study: the growth media CD FortiCHO™ from Life Technologies Inc./Thermo (AGEN1884w-FortiCHO) and the growth media PowerCHO™ 2 from Lonza (AGEN1884w-PowerCHO). The reference anti-CTLA-4 IgG₁ antibody contains a different IgG₁ allotype from the one in AGEN1884w. The IgG₁ isotype control antibody was only tested at 1000 μg/ml.
Background: A flow cytometer gives signals particle by particle.
Take B1: the binding result is “binds”.

The next assay addresses T3, human FcγRIIB expressed on CHO cells. Description: flow cytometry on CHO cells expressing human FcγRIIB. How it is done:
as §1
On to B1, for which the binding result is reported as “binds”.

The next assay addresses T4, recombinant human CTLA-4-Fc (R&D …). Description: surface plasmon resonance, antibody captured on CM5 chip, rhCTLA-4-Fc in solution. The text has this: To detect nonspecific interactions of the CTLA-4 antigen, antibody capture was only performed in flow cell 2, whereas in flow cell 1 only the capturing antibody was immobilized. After capture of the anti-CTLA-4 antibodies, the CTLA-4 antigens were run through both flow cells in different amounts. Specifically, recombinant human CTLA-4-Fc (R&D Systems, #7268-CT), recombinant human CTLA-4 (Sino Biological, #11159-H08H), recombinant cynomolgus CTLA-4-Fc (Sino Biological, #90213-C02H), and recombinant cynomolgus CTLA-4 (Sino Biological, #90213-C08H) were run at 100 nM, 25 nM, and 6.25 nM; and recombinant mouse CTLA-4-Fc (R&D, # 434-CT), recombinant rat CTLA-4-Fc (Sino Biological, #81069-RO2H), and recombinant rat CTLA-4 (Sino Biological, #81069-R08H) were run at 400 nM, 100 nM, and 25 nM. A blank curve (running buffer only) was also included in each run. Association was run for 90 seconds and dissociation for 600 seconds with a flow rate of 10 μl/min. After each run a regeneration step was performed with 10 mM Glycine pH 2.0 (GE Healthcare, BR-1003-55) for 60 seconds with 30 μl/min. Binding curves were evaluated using BIAcore® T200 evaluation software version 2.0.1 applying a Langmuir 1:1 model with global fit of Rmax. From these values the affinities (KD) of AGEN1884 and the reference anti-CTLA-4 antibody for various antigens were calculated and shown in FIG. 1A. The recombinant monomeric cynomolgus CTLA-4, mouse CTLA-4-Fc, and monomeric rat CTLA-4 used in this study failed quality control assessment. […] The surface plasmon resonance analysis was later repeated twice using recombinant mouse CTLA-4-Fc (Sino Biological, #81069-R02H) that passed a quality control assessment at 360 nM, 120 nM, 40 nM, and 13.3 nM for AGEN1884w.
The affinity of the 19 anti-CTLA-4 antibodies described above was analyzed by surface plasmon resonance in an assay similar to the one described in Section 6.1.1. The CTLA-4 antigen tested was recombinant human CTLA-4-Fc (R&D Systems, #7268-CT). The anti-CTLA-4 antibodies (6 μg/ml in running buffer) were captured to the chip surface of a CMS sensor chip.
In general terms: Surface plasmon resonance follows binding to a sensor surface in real time, without labels.
On to B2, for which the binding result is on record as “binds”.
For the molecule B3, the binding result is recorded as “binds”.
As to B4, the binding result is given as “binds”.
Turning to B5, the binding result was “binds”.
In the case of B6, the binding result was “binds”.
As to B7, the binding result was “binds”.
Take B8: the binding result was “binds”.
Turning to B9, the binding result is recorded as “binds”.
Still for that read-out and setting: under B10 stands “binds”.
The same measure, in the same setting: next, B11: “binds”.
Same read-out and setting: next, B12: “binds”; B13: “binds”.
With B14, the binding result is “binds”.
As to B15, the binding result is listed as “binds”.
On to B16, for which the binding result is “binds”.
For B17, the binding result was “binds”.
The same measure, in the same setting: under B18 stands “binds”.
